Here are results for two substances from article PMC9741242, “Insights into the Structure of the Highly Glycosylated Ffase from Rhodotorula dairenensis Enhance Its Biotechnological Potential” (International Journal of Molecular Sciences, 2022).

What is called stoichiometry N is the number of molecules, sites or subunits per partner or assembly.

Assay [1] addresses β-fructofuranosidase from Rhodotorula dairenensis (RdINV), wild type (Rhodotorula dairenensis CECT 1416). Put plainly: crystal structure; wild-type RdINV, deglycosylated; 25% PEG 3350, 0.2 M ammonium acetate, 0.1 M Bis-Tris pH 5.5; space group C222(1), two molecules in the asymmetric unit.
Assay [2] has as its target D188A-RdINVΔ21–139, truncated inactivated mutant of Rhodotorula dairenensis β-fructofuranosidase (Rhodotorula dairenensis CECT 1416). In words: crystal structure; D188A-RdINVΔ21–139, deglycosylated, complexes with fructose, sucrose or raffinose; PEG 3350, Bis-Tris pH 5.5; space group P2(1), four molecules in the asymmetric unit.

Take “β-fructofuranosidase from Rhodotorula dairenensis (RdINV), wild type (enzyme)”: the stoichiometry N in assay [1] came to 2. “D188A-RdINVΔ21–139, truncated inactivated mutant of Rhodotorula dairenensis β-fructofuranosidase (enzyme)”: in assay [2], the stoichiometry N is 2.
